Measured values: the supplement of paper PMC11316812
± gives the standard deviation of the averaged measurements.

Columns and labels:
MCF7 = experiment: percentage of EdU-negative (G0-arrested) nuclei per well, 72 h; higher = more G0 arrest; settings: reference: sequence is the full UniProt precursor, the tested protein was the secreted form or ectodomain
hTERT-HMEC = experiment: as above; settings: reference: sequence is the full UniProt precursor, the tested protein was the secreted form or ectodomain
[1] = protein concentration 0.0225 µM
[2] = protein concentration 0.00925 µM
[3] = protein concentration 0.0925 µM
[4] = protein concentration 0.01425 µM
[5] = protein concentration 0.1425 µM
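Also: secreted proteins added to cultured cells, EdU pulse at the end, nuclei found by Hoechst imaging, EdU status from nuclear versus surrounding ring intensity ratio, PBS as neutral control.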

Sequence	percentage of EdU-negative (MCF7; [1]) [%]	percentage of EdU-negative (MCF7; protein concentration 0.225 µM) [%]	percentage of EdU-negative (hTERT-HMEC; [1]) [%]	percentage of EdU-negative (hTERT-HMEC; protein concentration 0.225 µM) [%]	also measured
MPMASPQTLVLYLLVLAVTEAWGQEAVIPGCHLHPFNVTVRSDRQGTCQGSHVAQACVGHCESSAFPSRYSVLVASGYRHNITSVSQCCTISGLKKVKVQLQCVGSRREELEIFTARACQCDMCRLSRY [Q96T91]	24.4 ± 0.81	22 ± 2.1	6.3 ± 1.5	4.45 ± 1.1	–
MPMFIVNTNVPRASVPDGFLSELTQQLAQATGKPPQYIAVHVVPDQLMAFGGSSEPCALCSLHSIGKIGGAQNRSYSKLLCGLLAERLRISPDRVYINYYDMNAANVGWNNSTFA	24.4 ± 1.2	26.3 ± 2	4.84 ± 1.4	6.38 ± 1.7	–
MPMGSLQPLATLYLLGMLVASCLGRLSWYDPDFQARLTRSNSKCQGQLEVYLKDGWHMVCSQSWGRSSKQWEDPSQASKVCQRLNCGVPLSLGPFLVTYTPQSSIICYGQLGSFSNCSHSRNDMCHSLGLTCLEPQKTTPPTTRPPPTTTPEPTAPPRLQLVAQSGGQHCAGVVEFYSGSLGGTISYEAQDKTQDLENFLCNNLQCGSFLKHLPETEAGRAQDPGEPREHQPLPIQWKIQNSSCTSLEHCFRKIKPQKSGRVLALLCSGFQPKVQSRLVGGSSICEGTVEVRQGAQWAALCDSSSARSSLRWEEVCREQQCGSVNSYRVLDAGDPTSRGLFCPHQKLSQCHELWERNSYCKKVFVTCQDPNPAGLAAGTVASIILALVLLVVLLVVCGPLAYKKLVKKFRQKKQRQWIGPTGMNQNMSFHRNHTATVRSHAENPTASHVDNEYSQPPRNSHLSAYPALEGALHRSSMQPDNSSDSDYDLHGAQRL	24.9 ± 1.4	26 ± 3.2	5.29 ± 0.99	5.13 ± 0.33	–
MPPFLLLTCLFITGTSVSPVALDPCSAYISLNEPWRNTDHQLDESQGPPLCDNHVNGEWYHFTGMAGDAMPTFCIPENHCGTHAPVWLNGSHPLEGDGIVQRQACASFNGNCCLWNTTVEVKACPGGYYVYRLTKPSVCFHVYCGHFYDICDEDCHGSCSDTSECTCAPGTVLGPDRQTCFDENECEQNNGGCSEICVNLKNSYRCECGVGRVLRSDGKTCEDVEGCHNNNGGCSHSCLGSEKGYQCECPRGLVLSEDNHTCQVPVLCKSNAIEVNIPRELVGGLELFLTNTSCRGVSNGTHVNILFSLKTCGTVVDVVNDKIVASNLVTGLPKQTPGSSGDFIIRTSKLLIPVTCEFPRLYTISEGYVPNLRNSPLEIMSRNHGIFPFTLEIFKDNEFEEPYREALPTLKLRDSLYFGIEPVVHVSGLESLVESCFATPTSKIDEVLKYYLIRDGCVSDDSVKQYTSRDHLAKHFQVPVFKFVGKDHKEVFLHCRVLVCGVLDERSRCAQGCHRRMRRGAGGEDSAGLQGQTLTGGPIRIDWED [Q8WWZ8]	–	–	–	–	percentage of EdU-negative (MCF7; protein concentration 0.007 µM): 25.2 ± 1.8%; percentage of EdU-negative (MCF7; protein concentration 0.07 µM): 27.3 ± 1.3%; percentage of EdU-negative (hTERT-HMEC; protein concentration 0.007 µM): 5.2 ± 0.59%; percentage of EdU-negative (hTERT-HMEC; protein concentration 0.07 µM): 5.67 ± 1.7%
MPPGPWESCFWVGGLILWLSVGSSGDAPPTPQPKCADFQSANLFEGTDLKVQFLLFVPSNPSCGQLVEGSSDLQNSGFNATLGTKLIIHGFRVLGTKPSWIDTFIRTLLRATNANVIAVDWIYGSTGVYFSAVKNVIKLSLEISLFLNKLLVLGVSESSIHIIGVSLGAHVGGMVGQLFGGQLGQITGLDPAGPEYTRASVEERLDAGDALFVEAIHTDTDNLGIRIPVGHVDYFVNGGQDQPGCPTFFYAGYSYLICDHMRAVHLYISALENSCPLMAFPCASYKAFLAGRCLDCFNPFLLSCPRIGLVEQGGVKIEPLPKEVKVYLLTTSSAPYCMHHSLVEFHLKELRNKDTNIEVTFLSSNITSSSKITIPKQQRYGKGIIAHATPQCQINQVKFKFQSSNRVWKKDRTTIIGKFCTALLPVNDREKMVCLPEPVNLQASVTVSCDLKIACV [Q53H76]	–	–	–	–	percentage of EdU-negative (MCF7; [2]): 24.3 ± 1.9%; percentage of EdU-negative (MCF7; [3]): 28.4 ± 1.4%; percentage of EdU-negative (hTERT-HMEC; [2]): 4.11 ± 0.46%; percentage of EdU-negative (hTERT-HMEC; [3]): 6.06 ± 0.41%
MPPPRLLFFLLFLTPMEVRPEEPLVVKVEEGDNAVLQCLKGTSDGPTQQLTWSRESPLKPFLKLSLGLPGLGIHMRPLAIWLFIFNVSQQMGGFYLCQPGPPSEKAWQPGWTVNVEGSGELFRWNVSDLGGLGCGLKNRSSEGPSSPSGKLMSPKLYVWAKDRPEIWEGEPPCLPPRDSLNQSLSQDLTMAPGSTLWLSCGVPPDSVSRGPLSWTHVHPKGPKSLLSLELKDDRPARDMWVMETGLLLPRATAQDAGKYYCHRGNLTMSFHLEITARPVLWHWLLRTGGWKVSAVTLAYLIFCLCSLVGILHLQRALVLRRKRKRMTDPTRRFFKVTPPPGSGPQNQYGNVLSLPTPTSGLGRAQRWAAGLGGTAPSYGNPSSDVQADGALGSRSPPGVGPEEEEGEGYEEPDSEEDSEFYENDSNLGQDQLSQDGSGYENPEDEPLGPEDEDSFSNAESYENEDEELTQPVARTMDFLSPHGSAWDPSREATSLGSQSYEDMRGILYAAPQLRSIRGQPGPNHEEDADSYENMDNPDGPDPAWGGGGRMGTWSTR	–	–	–	–	percentage of EdU-negative (MCF7; [4]): 25.2 ± 1.1%; percentage of EdU-negative (MCF7; [5]): 26.2 ± 0.68%; percentage of EdU-negative (hTERT-HMEC; [4]): 5.66 ± 0.95%; percentage of EdU-negative (hTERT-HMEC; [5]): 8.73 ± 0.49%
MPPRGPASELLLLRLLLLGAATAAPLAPRPSKEELTRCLAEVVTEVLTVGQVQRGPCTALLHKELCGTEPHGCASTEEKGLLLGDFKKQEAGKMRSSQEVRDEEEEEVAERTHKSEVQEQAIRMQGHRQLHQEEDEEEEKEERKRGPMETFEDLWQRHLENGGDLQKRVAEKASDKETAQFQAEEKGVRVLGGDRSLWQGAERGGGERREDLPHHHHHHHQPEAEPRQEKEEASEREEKEVEQLEHLRDELKKVTETLGEQLRREG [I3L3R5]	26.1 ± 0.53	26.5 ± 0.58	5.07 ± 1.4	7.54 ± 0.57	–
